Assay results taken from patent US20250032605A1 (GENERAL HOSPITAL, published 2025).
Numbering of substitutions follows the chain as printed.

B1: Ab15 Fab (Fab, V domains shown)
VH: EVQLQQSGPELVKPGASVKISCKASGYSFTGYYMNWVKQSPEKSLEWIGEINPNFGGTTYNQKFKAKATLTVDKSSSTAYMQLKSLTSEDSAVYYCARYYGNLYAMDYWGQGTSVTVS
VL: DILMTQSPSSMSVSLGDTVSITCHASQGISSNIGWLQQKPGKSFKGLIYHGTNLEDGVPSRFSGSGSGAAYSLTISSLESEDFADYYCVQYTHFPYTFGGGTKLEIK
B2: Ab16 Fab (Fab, V domains shown)
VH: B1 VH with T30N, G31N, F55S, G57Y, T59S, K65R, S77T, Y100F, Y104F, Y108F
VL: B1 VL with S30G, H50L, A70D, T92V, H93Q
B3: Ab17 Fab (Fab, V domains shown)
VH: EVQLQQSGPELVKPGASVKISCKASGYSFTDYYMNWVKQSPEKSLEWIGEINPNTGGTTYNQKFKAKATLTVDKSSSTAYMQLKSLTSEDSAVYYCARYYGNLYAMDYWGQGTSVTVSS
VL: B1 VL with A70D, T92V, H93Q, F98L
B4: Ab19 Fab (Fab, V domains shown)
VH: QVQLQQSGAELARPGASVKLSCKASGYPFTSYGINWVKQRTGQGLEWIGEIYPRIGNTYYNEKFKGKATLTADKSSSTAYMEFRSLTSEDSAVYFCARSWNSNYGEYYFDYWGQGTTLTVS
VL: DIVMTQSHKFMSTSIGDRVSITCKASHDVSTAVAWYQQKPGQSPKLLIYWASTRHTGVPDRFTGSGSGTDYTLTIRSVQAEDLALYYCQQHYSTPYTFGGGTKLEIK
B5: Ab20 Fab (Fab, V domains shown)
VH: EVQLQQSGPELVKPGASVKISCKASGFSFTGYSMNWMKQSPEKSLEWIGEINPTTGGTTYNQKFKAKATLTVDKSSSTAYIQLKSLTSEDSAVYYCARGRADYWGQGTTLTVSS
VL: DIVLTQSPASLAVSLGQRATISCRASESVEYYGTGLVQWFQQKPGQPPKLLIYAASNVESGVPARFSGSGSGTDFSLNIHSVEEDDIAMYFCHQSRKLPWTFGGGTKLEIK

Tests used:
[1] = target: T1, SARS-2 RBM^hg RBD construct (SARS-2 RBD with engineered glycans at 448, 475, 494 and 501) (SARS-CoV-2 (engineered), UniProt P0DTC2 319-529); test: BLI with recombinant Fabs, drawn table of KD (µM)
[2] = target: T1, SARS-2 RBM^hg RBD construct (SARS-2 RBD …); test: BLI with recombinant Fabs, drawn table of KD (µM), column ΔRBM

Row | Binder | Kd [1] [nM] | Kd [2] [nM]
1 | B1 | 1300 | 1300
2 | B2 | 160 | –
3 | B3 | 100 | –
4 | B4 | > 100000 | > 100000
5 | B5 | > 100000 | > 100000
